Assay results reported in PMC5724578 (Biochemistry, 2017).

Target: VASP EVH1 domain (wild type) (human, UniProt P50552 2-115)
Test: NMR titration

B1: Zyxin proline rich region, residues 41-140 (domain or fragment, human, UniProt Q15942 41-140, looked up)
chain: PGDSEPPPAPGAQRAQMGRVGEIPPPPPEDFPLPPPPLAGDGDDAEGALGGAFPPPPPPIEESFPPAPLEEEIFPSPPPPPEEEGGPEAPIPPPPQPREK
Work on B1 yielded a Kd of 32.2 ± 1.7 µM.
